Assay results reported in patent US20070128190A1 (GLENMARK PHARMACEUTICALS S A, published 2007).

Columns and labels:
[1] = molecular target: human α2β1 integrin on human cells (platelets, leukocytes, HT1080) (human, UniProt P17301 30-1181; P05556 21-798); test: cell-based or functional assay
[2] = molecular target: T1, human platelet α2β1 integrin (immobilized on microtiter plates) (human, UniProt P17301 30-1181; P05556 21-798); test: competition with Eu-humanized TMC-2206 on α2β1-coated plates
T1 construct: plates custom-coated with human platelet α2β1 by GTI Inc; also called immobilized α2β1 integrin; α2β1-coated plates
From the text: The inhibition curves were fitted with the “one site competition” model using Prism software (GraphPad, Inc.) to obtain IC₅₀ values and to calculate the Kᵢ using the equation of Cheng and Prusoff (1973) and the respective values for KD from above.
The cloning of the human, rhesus macaque, rat, and mouse α2 I domains were described in Example 12. Cynomolgus and additional rhesus monkey α2 I domains were cloned from cDNA derived from total RNA extracted from skin tissue (MediCorp, Inc., Montreal, QC).

[3] = molecular target: T1, human platelet α2β1 integrin …; test: competition with Eu-TMC-2206 on human platelet α2β1-coated plate
Procedure: Exemplary IgG1 antibodies have a hVH 14.0 γ heavy chain (SEQ ID NO:181) or a hVH12.0 γ1 heavy chain (SEQ ID NO:182) and a hVL10.0Q light chain (SEQ ID NO:178). Exemplary IgG4 antibodies have a hVH14.0 γ4 heavy chain (SEQ ID NO:174) or a hVH12.0 γ4 heavy chain (SEQ ID NO:176) and a hVL 10.0Q light chain (SEQ ID NO:178). Purified antibodies were tested in the competition assay to compare potency by Kᵢ values as well as in the cell adhesion to collagen assay, where potency is measured as EC₅₀ values.

[4] = molecular target: T2, GST-human α2 I domain fusion protein (human, UniProt P17301 153-368); test: SPR (Biacore 2000), antibody captured, GST-α2 I domain in solution
T2 construct: the reverse primer ends at ...SIEGTV; also called GST-α2 I domain; hα2I; not shown: glutathione S-transferase tag encoded by vector pGEX-2TK
T2 sequence: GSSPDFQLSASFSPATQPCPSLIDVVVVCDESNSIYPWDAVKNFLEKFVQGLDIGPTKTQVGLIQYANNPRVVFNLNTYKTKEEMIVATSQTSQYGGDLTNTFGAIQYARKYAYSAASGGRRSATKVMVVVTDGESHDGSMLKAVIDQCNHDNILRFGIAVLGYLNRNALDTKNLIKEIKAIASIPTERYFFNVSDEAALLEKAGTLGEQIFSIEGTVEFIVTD

[5] = molecular target: T1, human platelet α2β1 integrin …; test: competition with Eu-humanized TMC-2206 on human platelet α2β1-coated plate
Procedure: The MAb/bicarbonate mixture (0.250 mL) was gently mixed into a vial containing 0.2 mg N¹-(p-isothiocyanatobenzyl)-diethylenetriamine-N¹,N²,N³,N³-tetraacetic acid chelated with Eu³⁺ (Eu-N1-ITC; Perkin Elmer Life Sciences) and incubated overnight at 4° C. without stirring. The labeled antibody mixture was applied to a PD-10 column (GE Biosciences, Piscataway, N.J.) pre-equilibrated with Running Buffer (50 mM Tris, pH 7.4 and 138 mM NaCl). Fractions (0.5 mL) were collected and assayed for total protein (Bradford reagent; Bio-Rad Laboratories, Hercules, Calif.) using a SpectraMax 384 absorbance plate reader and for europium after 1:10.000 dilution in DELFIA Enhancement Solution (Perkin-Elmer) by time-resolved fluorescence (TRF) using a Victor2 multi-label plate reader (Perkin Elmer). The fractions that were positive for both protein and europium label were pooled, applied to a new PD-10 column, and samples collected and assayed for total protein and for europium content by TRF calibrated against a europium standard solution (Perkin-Elmer) to calculate the fluor : protein ratio. […] The plate was shaken (Titer Plate Shaker, speed setting of 5, 5 minutes at room temperature) and TRF intensities were read using the Victor2 multi-label plate reader. The KD values were calculated by Scatchard analyses.

[6] = molecular target: T1, human platelet α2β1 integrin …; test: equilibrium binding of Eu-labelled antibody to human platelet α2β1-coated plate, Scatchard
Procedure: Wells in a 96-well microtiter plate were coated with platelet α2β1-integrin (custom-coated with human platelet α2β1 by GTI Inc., WI) and then blocked with nonfat milk. […] After concentration in prewashed MicroSep concentrators [30-kDa cutoff; Pall Life Sciences at 9500 rpm (7000×g) in a JA-20 rotor (Beckman Instruments, Inc.] for 20 minutes at 4° C.), the antibody was adjusted to 4.0 mg/mL with PBS, 100 mM NaHCO₃, pH 9.3. The MAb/bicarbonate mixture (0.250 mL) was gently mixed into a vial containing 0.2 mg N¹-(p-isothiocyanatobenzyl)-diethylenetriamine-N¹,N²,N³,N³-tetraacetic acid chelated with Eu³⁺ (Eu-N1-ITC; Perkin Elmer Life Sciences) and incubated overnight at 4° C. without stirring. The labeled antibody mixture was applied to a PD-10 column (GE Biosciences, Piscataway, N.J.) pre-equilibrated with Running Buffer (50 mM Tris, pH 7.4 and 138 mM NaCl). Fractions (0.5 mL) were collected and assayed for total protein (Bradford reagent; Bio-Rad Laboratories, Hercules, Calif.) using a SpectraMax 384 absorbance plate reader and for europium after 1:10.000 dilution in DELFIA Enhancement Solution (Perkin-Elmer) by time-resolved fluorescence (TRF) using a Victor2 multi-label plate reader (Perkin Elmer). […]

BSA = molecular target: T3, BSA (UniProt P02769 25-607); test: Eu-labelled antibody on BSA-coated control wells
T3 construct: also called BSA coated control wells

B1: Humanized TMC-2206 (hIgG4/κ VH12.0/VL10.0Q) (antibody)
heavy: not shown
light: DFVMTQSPAFLSVTPGEKVTITCSAQSSVNYIHWYQQKPDQAPKKLIYDTSKLASGVPSRFSGSGSGTDYTFTISSLEAEDAATYYCQQWTTNPLTFGQGTKVEIKRTVAAPSVFIFPPSDEQLKSGTASVVCLLNNFYPREAKVQWKVDNALQSGNSQESVTEQDSKDSTYSLSSTLTLSKADYEKHKVYACEVTHQGLSSPVTKSFNRGEC
notes: labelled with Eu or Alexa-488 in some assays
EC50 (nm), human platelets on human placenta Type I collagen (n = 1) [1]: 13100 pM
Ki [2]: 340 pM
Ki [3]: 270 pM
Kd [4]: 2300 pM
koff [4]: 0.00082 s⁻¹
kon [4]: 350000 M⁻¹ s⁻¹
Ki [5]: 410 pM
Kd [6]: 1290 pM

B2: TMC-2206 (antibody, mouse IgG1, V domains shown)
VH: QVQLKESGPGLVAPSQSLSITCTVSGFSLTNYGIHWVRQPPGKGLEWLGVIWARGFTNYNSALMSRLIITKDNSQSQVFLKMNSLQPDDSATYFCARANDGVYYAMDYWGQGTSVTVSS
VL: QFVLTQSPAFLSASPGEKVTMTCSANSSVNYIHWYQQKSGTSPKKWIYDTSKLASGVPVRFSGSGSGTSYSLTISSMETEDAATYYCQQWTTNPLTFGAGTRVELK
notes: murine IgG1/κ secreted by hybridoma BHA2.1; labelled with Eu-N1-ITC where used as tracer; also called BHA2.1
EC50 (nm), human platelets on human placenta Type I collagen (n = 1) [1]: 8440 pM
binding result (BSA): no binding
Ki [2]: 140 pM
Ki [3]: 220 pM
Kd [4]: 2900 pM
koff [4]: 0.0011 s⁻¹
kon [4]: 380000 M⁻¹ s⁻¹
Ki [5]: 210 pM
Kd [6]: 720 pM
